Experimental data published in publication PMC12282144 (Journal of Virology, 2025).

Assays:
[1] = molecular target: T1, N-terminal GST-tagged soluble ectodomain of NRP2 (aa 17-865) (human, UniProt O60462 17-865); test: pull-down; conditions: both partners purified
T1 construct: not shown: GST, N-terminal, kept
T1 sequence: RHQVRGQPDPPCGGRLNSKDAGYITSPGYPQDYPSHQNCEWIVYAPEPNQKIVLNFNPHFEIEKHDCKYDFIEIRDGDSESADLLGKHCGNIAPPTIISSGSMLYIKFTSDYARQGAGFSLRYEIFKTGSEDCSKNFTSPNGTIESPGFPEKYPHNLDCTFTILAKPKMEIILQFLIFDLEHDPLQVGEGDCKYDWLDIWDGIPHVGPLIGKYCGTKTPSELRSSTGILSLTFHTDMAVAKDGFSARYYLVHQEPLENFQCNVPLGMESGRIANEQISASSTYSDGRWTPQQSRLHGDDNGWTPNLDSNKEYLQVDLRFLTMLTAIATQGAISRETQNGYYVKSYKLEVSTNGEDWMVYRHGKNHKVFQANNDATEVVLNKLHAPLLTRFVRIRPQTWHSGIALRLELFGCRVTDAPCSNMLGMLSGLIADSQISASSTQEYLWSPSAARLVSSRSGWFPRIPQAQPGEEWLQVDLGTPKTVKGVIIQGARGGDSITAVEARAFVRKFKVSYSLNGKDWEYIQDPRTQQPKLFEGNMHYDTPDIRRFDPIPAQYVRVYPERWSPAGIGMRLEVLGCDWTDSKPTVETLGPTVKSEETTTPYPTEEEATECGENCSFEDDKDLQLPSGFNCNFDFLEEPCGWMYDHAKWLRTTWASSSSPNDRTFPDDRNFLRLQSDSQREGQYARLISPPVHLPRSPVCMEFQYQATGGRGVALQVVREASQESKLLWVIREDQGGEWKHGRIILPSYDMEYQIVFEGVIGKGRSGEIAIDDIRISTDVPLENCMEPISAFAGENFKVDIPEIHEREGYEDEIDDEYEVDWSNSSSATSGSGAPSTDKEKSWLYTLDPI

[2] = molecular target: T2, recombinant Fc-tagged NRP2 ectodomain (human, UniProt O60462 21-864); test: […] (10, 20 or 50 µL, […]) in 0.2 mL PBS for 2 h; […]; conditions: both partners purified
T2 construct: not shown: Fc, C-terminal, kept
T2 sequence: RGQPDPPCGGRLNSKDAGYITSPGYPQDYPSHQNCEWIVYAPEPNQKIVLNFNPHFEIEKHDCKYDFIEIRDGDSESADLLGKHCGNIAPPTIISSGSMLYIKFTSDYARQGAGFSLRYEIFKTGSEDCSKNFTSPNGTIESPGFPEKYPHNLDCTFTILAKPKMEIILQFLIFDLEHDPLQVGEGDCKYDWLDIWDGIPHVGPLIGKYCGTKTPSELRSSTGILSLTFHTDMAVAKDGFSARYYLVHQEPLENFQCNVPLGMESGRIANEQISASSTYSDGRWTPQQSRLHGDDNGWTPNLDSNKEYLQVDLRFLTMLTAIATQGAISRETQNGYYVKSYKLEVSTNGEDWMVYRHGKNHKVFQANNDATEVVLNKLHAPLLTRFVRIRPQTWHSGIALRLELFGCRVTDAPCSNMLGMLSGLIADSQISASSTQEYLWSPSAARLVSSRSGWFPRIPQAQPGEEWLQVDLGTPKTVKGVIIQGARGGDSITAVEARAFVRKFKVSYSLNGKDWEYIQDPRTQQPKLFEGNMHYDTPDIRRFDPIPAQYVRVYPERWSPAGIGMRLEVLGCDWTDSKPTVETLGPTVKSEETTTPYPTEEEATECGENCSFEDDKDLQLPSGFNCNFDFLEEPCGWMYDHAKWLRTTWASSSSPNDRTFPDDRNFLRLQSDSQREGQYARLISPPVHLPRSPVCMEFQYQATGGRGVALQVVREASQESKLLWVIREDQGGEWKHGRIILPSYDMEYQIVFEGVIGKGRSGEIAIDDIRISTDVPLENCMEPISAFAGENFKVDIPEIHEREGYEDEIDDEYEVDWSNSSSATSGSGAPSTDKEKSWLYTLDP

B1: RABV G on purified ERA(G/Flag) particles (natural protein)
chain: KFPIYTILDKLGPWSPIDIHHLSCPNNLVVEDEGCTNLSGFSYMELKVGYILAIKMNGFTCTGVVTEAETYTNFVGYVTTTFKRKHFRPTPDACRAAYNWKMAGDPRYEESLHNPYPDYRWLRTVKTTKESLVIISPSVADLDPYDRSLHSRVFPSGKCSGVAVSSTYCSTNHDYTIWMPENPRLGMSCDIFTNSRGKRASKGSETCGFVDERGLYKSLKGACKLKLCGVLGLRLMDGTWVAMQTSNETKWCPPDQLVNLHDFRSDEIEHLVVEELVRKREECLDALESIMTTKSVSFRRLSHLRKLVPGFGKAYTIFNKTLMEADAHYKSVRTWNEILPSKGCLRVGGRCHPHVNGVFFNGIILGPDGNVLIPEMQSSLLQQHMELLESSVIPLVHPLADPSTVFKDGDEAEDFVEVHLPDVHNQVSGVDLGLPNWGKYVLLSAGALTALMLIIFLMTCCRRVNRSEPTQHNLRGTGREVSVTPQSGKIISSWESHKSGGETRL
binding result [1]: binds
binding result [2]: binds
